Laboratory results reported in patent US20120190564A1, “IDENTIFICATION OF PROTEIN BINDING SITES” (priority 2000, published 2012).
“Also recorded” adds a separate entry of the source. Ends that are not written are not given here. code + = amino-terminal bromo-group; mmt = not defined here

What was measured:
Format in all cases: binding
monoclonal antibody 210 = test: Standard linear Pepscan on all overlapping 12-mers of hTNF with mAb 210; conditions: all overlapping linear 12-mers covering hTNF
Procedure: FIG. 10: Standard linear Pepscan on all overlapping synthetic 12-mers covering the linear sequence of hTNF with monoclonal antibody 210 (R&D Systems, MAB210, clone 1825.12, through ITK Diagnostics Uithoorn, The Netherlands). A small peak with the sequence IKSPCQRETPEG (SEQ ID NO: 2) was identified. The y-axis are optical density values (OD) obtained using a ccd-camera system. Rampo, rabbit-anti-mouse peroxidase (DAKO).
The monoclonal antibody mAb-210 raised against hTNF was tested on linear and loop peptides (mAb-210 was bought from R&D Systems, MAB210, clone 1825.12, through ITK Diagnostics Uithoorn, The Netherlands). Firstly, it was tested in Pepscan on all overlapping linear 12-mers covering hTNF. […] Secondly, it was tested in Pepscan matrix-scan on double 15-mer loop-loop peptides (as described in FIGS. 3 and 4 and explained through FIGS. 11-12). Two loop-regions were labeled: peptide sequence GQGCPSTHVLLT (SEQ ID NO: 65) (squares 65 to 67) and SAIKSPCQRE (SEQ ID NO: 28) (squares 92 to 96) (FIGS. 13, 14). In addition in various squares loop peptide spots were identified corresponding to sequence GQGCPSTHVLLT (SEQ ID NO: 65) (spots 65-67); SAIKSPCQRE (SEQ ID NO: 28) (spots 92-96) and KGDRLSAEINR (SEQ ID NO: 29) (spots 126-129) (FIG. 14). […]

lysozyme-biotin = lysozyme-biotin (Gallus gallus, UniProt P00698); test: Loop-loop Matrix-scan of CDR loop-peptide pairs with lysozyme-biotin; conditions: lysozyme-biotin 100 ug/ml, in triplo
Procedure: FIG. 16: Result of the loop-loop 15-mer Matrix-scan of loop-loop CDR-regions of antibodies with lysozyme-biotin (100 ug/ml, in triplo). Using 1 μg/ml lysozyme-biotin no binding is observed (not shown). Controls of only streptavidin-peroxidase in between the tests were negative (not shown). Peptides A, B, C, D, E and F: Peptide-A: +ARERDYRLDYZ (SEQ ID NO: 30) (HCDR3 of 1 fdl.pdb); Peptide-B: +ARGDGNYGYZ (SEQ ID NO: 31) (HCDR3 of 1mlb.pdb); Peptide-C: +LHGNYDFDGZ (SEQ ID NO: 32) (HCDR3 of 3hfl.pdb); Peptide-D: +ANWDGDYZ (SEQ ID NO: 33) (HCDR3 of 3hfm.pdb); Peptide-E: +ARRYGNSFDYZ (SEQ ID NO: 34) (HCDR3 of 1qfw.pdb); Peptide-F: +ARQGTAAQPYWYZ (SEQ ID NO: 35) (HCDR3 of 1qfw.pdb) (1fdl.pdb, 1mlb.pdb, 3hfl.pdb and 3hfm.pdb are antibodies that bind lysozyme; 1qfw.pdb are two antibodies that bind human choriogonadotrophin). All peptides have an amino terminal bromo-group (+) and a carboxyterminal lysine-mmt (Z).
Peptides 1 to 27: Peptide-1: +RASGNIHNYLAZ (SEQ ID NO: 36) (LCDR1 of 1fdl.pdb); Peptide-2: +RASQSISNNLHZ (SEQ ID NO: 37) (LCDR1 of 1mlb.pdb); Peptide-3: +SASSSVNYMYZ (SEQ ID NO: 38) (LCDR1 of 3hfl.pdb); Peptide-4: +RASQSIGNNLHZ (SEQ ID NO: 39) (LCDR1 of 3hfm.pdb); Peptide-5: +RASESVDSYGNSZ (SEQ ID NO: 40) (LCDR1 of 1qfw.pdb); Peptide-6: +ASESVDSYGNSFZ (SEQ ID NO: 41) (LCDR1 of 1qfw.pdb); […]: +SESVDSYGNSFMZ (SEQ ID NO: 42) (LCDR1 of 1qfw.pdb); Peptide-8: +ESVDSYGNSFMQZ (SEQ ID NO: 43) (LCDR1 of 1qfw.pdb); Peptide-9: +RASESVDSYGNSFZ (SEQ ID NO: 44) (LCDR1 of 1qfw.pdb); Peptide-10: +ASESVDSYGNSFMZ (SEQ ID NO: 45) (LCDR1 of 1qfw.pdb); Peptide-11: +SESVDSYGNSFMQZ (SEQ ID NO: 46) (LCDR1 of 1qfw.pdb); Peptide-12: +RASESVDSYGNSFMZ (SEQ ID NO: 47) (LCDR1 of 1qfw.pdb); Peptide-13: +ASESVDSYGNSFMQZ (SEQ ID NO: 48) (LCDR1 of 1qfw.pdb); Peptide-14: +RASESVDSYGNSFMQZ (SEQ ID NO: 49) (LCDR1 of 1qfw.pdb); Peptide-15: +KASETVDSFVSZ (SEQ ID NO: 50) (LCDR1 of 1qfw.pdb); Peptide-16: +LLVYYTTTLADGZ (SEQ ID NO: 51) (LCDR2 of 1fdl.pdb); Peptide-17: +LLIKYVSQSSSGZ (SEQ ID NO: 52) (LCDR2 of 1mlb.pdb); Peptide-18: +RWIYDTSKLASGZ (SEQ ID NO: 53) (LCDR2 of 3hfl.pdb); Peptide-19: +LLIKYASQSISGZ (SEQ ID NO: 54) (LCDR2 of 3hfm.pdb); Peptide-20: +LLIYRASNLESGZ (SEQ ID NO: 55) (LCDR2 of 1qfw.pdb); Peptide-21: LLIFGASNRESGZ (SEQ ID NO: 56) (LCDR2 of 1qfw.pdb); Peptide-22: +QHFWSTPRTZ (SEQ ID NO: 57) (LCDR3 of 1fdl.pdb); Peptide-23: +QQSNSWPRTZ (SEQ ID NO: 58) (LCDR3 of 1mlb.pdb); Peptide-24: +QQWGRNPTZ (SEQ ID NO: 59) (LCDR3 of 3hfl.pdb); Peptide-25: +QQSNSWPYTZ (SEQ ID NO: 60) (LCDR3 of 3hfm.pdb); Peptide-26: +QQSDEYPYMYTZ (SEQ ID NO: 61) (LCDR3 of 1qfw.pdb); Peptide-27: +GQTYNHPYTZ (SEQ ID NO: 62) (LCDR3 of 1qfw.pdb) (1 fdl.pdb, 1mlb.pdb, 3hfl.pdb and 3hfm.pdb are antibodies that bind lysozyme; 1 qfw.pdb are two antibodies that bind human choriogonadotrophin). All peptides have an amioterminal bromo-group (+) and a carboxyterminal lysine-mmt (Z).
From six different antibodies, the HCDR3-region (complementary determining region three of the antibody heavy chain) was synthesized as synthetic loop-peptides. As an example, four different anti-lysozyme antibodies and two different anti-choriogonadotrophin antibodies were selected: 1fdl.pdb (D1.3), 1mlb.pdb (D44.1), 3hfl.pdb (HyHel-5), 3hfm.pdb (HyHel-10) all anti-lysozyme, and 1qfw.pdb, two anti-human choriogonadotrophin, one anti-alpha and one anti-beta. The synthetic loop peptides were coupled to the minicards as described above. The three-dimensional coordinates (pdb-files) were extracted from the Protein Data Bank (PDB) at www.rcsb.org (RCSB, Research Collaboratory for Structural Bioinformatics) (Berman et al., 2000, The Protein Data Bank. Nucleic Acids Research, 28 pp. 235-242; Bernstein et al. 1977, The protein data bank: A computer-based archival file for macromolecular structures. J. Mol. Biol. 112:535-542). […]

Antibody-2 = test: Pepscan ELISA on single or double hFSH peptide loops, Antibody-2; conditions: individual loop peptides coupled as single loops
From the text: (§1) FIG. 17: Result of Pepscan ELISA with two different antibodies on single or double peptide loops coupled to Pepscan minicards, as described above. Coupled to square-A: Loop peptide-1; Coupled to square-B: first Loop peptide-1 followed by Loop peptide-2; Coupled to square-C: Loop peptide-2; Coupled to square-D: first Loop peptide-2 followed by Loop peptide-1. Loop peptide-1: +KSYNRVTVMGGFKVEZ-conh2 (SEQ ID NO: 63); Loop peptide-2: +LQENPFFSQPGAPILZ-conh2 (SEQ ID NO: 64). The y-axis are optical density values (OD) obtained using a ccd-camera system. Both loop-peptides are derived from human Follicle-Stimulating Hormone (hFSH).
(§2) Two peptides that constitute two separate parts of a discontinuous epitope were coupled to the surface of a minicard as described above in the legend of FIG. 12 (cf. FIG. 3A and FIG. 4 (example-4)). A cys(mmt) was coupled alone or in combination with a cys(trt) (in a 1:1 ratio) and/or val(mmt) (the cys and val in a 1:1, 1:3, 1:9 etc. ratio). In this way one peptide was coupled (squares A and C) or two peptides with increasing valines in between the cysteines were coupled (squares B and D) (cf. FIG. 4B (example-4), FIG. 17). These four configurations were incubated with two different antibodies.

Antibody-1 = test: Pepscan ELISA on single or double hFSH peptide loops, Antibody-1; conditions: individual loop peptides coupled as a single loop
From the text: as §1, §2

Chain of lysozyme-biotin (P00698 19-147): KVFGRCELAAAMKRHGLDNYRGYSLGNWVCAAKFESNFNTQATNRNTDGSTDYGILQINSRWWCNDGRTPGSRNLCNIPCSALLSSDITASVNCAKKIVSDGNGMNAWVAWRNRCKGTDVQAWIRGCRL

binding activity with lysozyme-biotin (lysozyme-biotin)	Substance	other results
	IKSPCQRETPEG	Pepscan binding of monoclonal antibody 210 (optical density) (monoclonal antibody 210): minor peak; also recorded: small peak
highest binding activity	+LHGNYDFDGZ (SEQ ID NO: 32)+LLVYYTTTLADGZ (SEQ ID NO: 51): loop-loop peptide pair: loop of HCDR3 of 3hfl.pdb and loop of LCDR2 1fdl.pdb (chain 1 {code +}-LHGNYDFDGK(mmt); chain 2 {code +}-LLVYYTTTLADGK(mmt); not fully specified; reading uncertain)	
	+KSYNRVTVMGGFKVEZ-conh2 ({code +}-KSYNRVTVMGGFKVEX-NH2; not fully specified; printed as +KSYNRVTVMGGFKVEZ-conh2) [loop peptide-1, loop-peptide derived from human Follicle-Stimulating Hormone (hFSH)]	recognition by Antibody-2 (Antibody-2): recognized
highest binding activity	+LHGNYDFDGZ (SEQ ID NO: 32)+SESVDSYGNSFMQZ (SEQ ID NO: 46): loop-loop peptide pair: loop of HCDR3 of 3hfl.pdb with loop of LCDR1 of 1qfw.pdb (chain 1 {code +}-LHGNYDFDGK(mmt); chain 2 {code +}-SESVDSYGNSFMQK(mmt); not fully specified; reading uncertain)	
highest binding activity	+LHGNYDFDGZ (SEQ ID NO: 32)+RASESVDSYGNSFMQZ (SEQ ID NO: 49): loop-loop peptide pair: loop of HCDR3 of 3hfl.pdb and loop of LCDR1 1qfw.pdb (chain 1 {code +}-LHGNYDFDGK(mmt); chain 2 {code +}-RASESVDSYGNSFMQK(mmt); not fully specified; reading uncertain)	
	+LQENPFFSQPGAPILZ-conh2 ({code +}-LQENPFFSQPGAPILX-NH2; not fully specified; printed as +LQENPFFSQPGAPILZ-conh2) [loop peptide-2, loop-peptide derived from human Follicle-Stimulating Hormone (hFSH)]	recognition by Antibody-1 (Antibody-1): recognized
highest binding activity	+LHGNYDFDGZ (SEQ ID NO: 32)+ASESVDSYGNSFMZ (SEQ ID NO: 45): loop-loop peptide pair: loop of HCDR3 of 3hfl.pdb and loop of LCDR1 1qfw.pdb (chain 1 {code +}-LHGNYDFDGK(mmt); chain 2 {code +}-ASESVDSYGNSFMK(mmt); not fully specified; reading uncertain)	
highest binding activity	+LHGNYDFDGZ (SEQ ID NO: 32)+RASESVDSYGNSFZ (SEQ ID NO: 44): loop-loop peptide pair: loop of HCDR3 of 3hfl.pdb and loop of LCDR1 1qfw.pdb (chain 1 {code +}-LHGNYDFDGK(mmt); chain 2 {code +}-RASESVDSYGNSFK(mmt); not fully specified; reading uncertain)	
highest binding activity	+LHGNYDFDGZ (SEQ ID NO: 32)+ASESVDSYGNSFZ (SEQ ID NO: 41): loop-loop peptide pair: loop of HCDR3 of 3hfl.pdb and loop of LCDR1 1qfw.pdb (chain 1 {code +}-LHGNYDFDGK(mmt); chain 2 {code +}-ASESVDSYGNSFK(mmt); not fully specified; reading uncertain)	
